Assay results taken from paper PMC9488787.
Like-named read-outs stand apart in the source and are kept apart here.

Hrq1: Hrq1-7KR (K164R, K219R, K221R, K366R, K839R, K872R, K938R)
no change: expression_or_secretion (ubiquitination at K164) | expression_or_secretion (ubiquitination at K219) | expression_or_secretion (ubiquitination at K221) | expression_or_secretion (ubiquitination at K366) | expression_or_secretion (ubiquitination at K839) | expression_or_secretion (ubiquitination at K872) | expression_or_secretion (ubiquitination at K938)
decreases: degradation_or_half_life (ubiquitination at K164) | degradation_or_half_life (ubiquitination at K219) | degradation_or_half_life (ubiquitination at K221) | degradation_or_half_life (ubiquitination at K366) | degradation_or_half_life (ubiquitination at K839) | degradation_or_half_life (ubiquitination at K872) | degradation_or_half_life (ubiquitination at K938)
